The target in test [1] is T1, Recombinant Mouse IL-17A, Sino Biological, PBV10159R-010 (mouse, UniProt Q62386 26-158).
T1 construct: also called murine IL-17A
T1 sequence (looked up): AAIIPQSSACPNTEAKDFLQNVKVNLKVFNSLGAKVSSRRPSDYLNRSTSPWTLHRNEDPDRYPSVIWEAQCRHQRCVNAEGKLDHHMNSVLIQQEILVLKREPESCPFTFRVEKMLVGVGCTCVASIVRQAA
Description: indirect ELISA, mouse IL-17A coated. (In general: In an ELISA, binding on a coated surface is turned into a signal by an enzyme label.)
Description: (§1) Human IL-17A was formulated into a 1 μg/ml coating solution with CBS, and added to the ELISA plate at 50 μL/well, and the plate was coated at 2 to 8° C. for 12 hours or longer. The residue coating solution was discarded, 3% milk was added, 200 μL per well, and the plate was blocked at room temperature for 1 hour. Each well was washed with not less than 200 μL of PBST, and the hybridoma supernatant was diluted to 100 μg/ml, and was 10-fold diluted for 10 gradients, and added to the plate at 100 μL/well. […] After incubating for 1 hour at room temperature, each well was added with not less than 200 μL of PBST and washed 4 times, and patted to dryness. TMB development solution was added at 100 μL per well. After reacting for 5 minutes at room temperature, the reaction was quenched by adding 2M H₂SO₄ at 50 μL/well. After the reaction was quenched, the ELISA plate was placed on a microplate reader, and the absorbance OD450 value was read at a wavelength of 450 nm.

The target of test [2] is T2, Recombinant Human IL-17A, Sino Biological, 12047-HNAS (human, UniProt Q16552 24-155).
T2 construct: range 24-155; Bought recombinant protein; also called huIL-17A
Description: indirect ELISA, human IL-17A coated.
Description: as §1

In test [3] the target is T2, Recombinant Human IL-17A, Sino …. Description: indirect ELISA, human IL-17A coated, hybridoma supernatant.
Description: as §1
Test [4] has as its target T3, Recombinant Rhesus IL-17A, Sino Biological, 90306-KNAB (Rhesus, UniProt F6T3G5 24-155).
T3 construct: also called macaque IL-17A
Description: indirect ELISA, Rhesus IL-17A coated.

Test [5] addresses T2, Recombinant Human IL-17A, Sino …. Description: cell-based or functional assay.
The target in test [6] is T4, Recombinant rat IL-17A, ABGENT, PBV10154r (rat, UniProt Q61453 18-150, limits assumed).
T4 sequence (looked up): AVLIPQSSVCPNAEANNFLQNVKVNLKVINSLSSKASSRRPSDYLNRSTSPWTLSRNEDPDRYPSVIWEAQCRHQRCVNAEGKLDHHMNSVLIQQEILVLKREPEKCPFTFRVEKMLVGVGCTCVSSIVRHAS
Description: indirect ELISA, rat IL-17A coated.

In test [7] the target is T5, Recombinant human IL-17D, Sino Biological, 10076-H08S (human, UniProt Q8TAD2 16-202).
T5 sequence (looked up): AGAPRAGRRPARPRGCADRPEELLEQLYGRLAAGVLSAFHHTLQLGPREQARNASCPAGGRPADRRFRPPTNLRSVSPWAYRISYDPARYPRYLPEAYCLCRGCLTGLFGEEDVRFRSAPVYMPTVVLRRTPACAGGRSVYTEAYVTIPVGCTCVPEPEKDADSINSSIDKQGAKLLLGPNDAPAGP
Description: indirect ELISA, IL-17D coated at 1 µg/ml.
Description: as §1

Test [8] has as its target T2, Recombinant Human IL-17A, Sino …. Description: indirect ELISA, human IL-17A coated. The source holds these as a separate data set.
In test [9] the target is T6, Recombinant human IL-17E, ABGENT, PBV10154r (human, UniProt Q9H293 33-177, limits assumed).
T6 construct: The catalogue number printed is the same as that printed for rat IL-17A; also called IL-25
T6 sequence (looked up): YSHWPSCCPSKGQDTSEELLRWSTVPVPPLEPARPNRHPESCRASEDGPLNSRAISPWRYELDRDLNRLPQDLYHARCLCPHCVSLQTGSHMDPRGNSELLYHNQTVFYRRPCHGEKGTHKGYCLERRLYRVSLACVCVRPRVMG
Description: indirect ELISA, IL-17E coated at 1 µg/ml.
Description: as §1

Test [10] concerns the target T2, Recombinant Human IL-17A, Sino …. Description: indirect ELISA, human IL-17A coated. The source holds these as a separate data set.
Description: as §1
Test [11] addresses T1, Recombinant Mouse IL-17A, Sino …. Description: indirect ELISA, mouse IL-17A coated. The source holds these as a separate data set.
Description: as §1
Test [12] has as its target T2, Recombinant Human IL-17A, Sino …. Description: cell-based or functional assay. The source holds these as a separate data set.
Test [13] has the same target. Description: SPR (Biacore), antibody captured by anti-human antibody on the chip, IL-17A as analyte, 1:1 model.
Description: In this example, the antigen-antibody binding kinetics and affinity were determined using BIACORE method.
Human Antibody Capture Antiboy was amino-coupled immobilized on the Sereis S Sensor Chip CMS chip using Amine Coupling Kit, anti-Human Capture-CMS chip. The chip was placed at room temperature for 20-30 mins, and loaded into the instrument. The antigen was diluted with equilibration buffer at an initial dilution of lOnM, and was diluted for 5 concentration gradients. 2 zero concentrations (i.e., equilibration buffer) and one repeat concentration (generally the lowest concentration repeat) were set. The antibody sample was diluted to the experimental working concentration with an equilibration buffer and sealed at 2-8° C.
The target is the same in test [14]. Description: indirect ELISA, human IL-17A coated. The source holds these as a separate data set.
Description: as §1
In test [15] the target is T7, Recombinant human IL-17B, R&D, 8129-IL (human, UniProt Q9UHF5 21-180).
T7 sequence (looked up): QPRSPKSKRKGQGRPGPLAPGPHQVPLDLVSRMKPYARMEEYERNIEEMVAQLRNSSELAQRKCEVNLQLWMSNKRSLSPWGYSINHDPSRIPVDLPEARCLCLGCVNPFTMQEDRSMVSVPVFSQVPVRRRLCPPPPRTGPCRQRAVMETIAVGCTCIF
Description: indirect ELISA, IL-17B coated at 1 µg/ml.

The target in test [16] is T2, Recombinant Human IL-17A, Sino …. Description: indirect ELISA, human IL-17A coated. This is another data set of the same source.
Description: as §1

Where two headings read alike, the source gives them in different places.

As a reminder, the EC50 is the concentration that produces a half-maximal response. As usually defined, the Kd is the free concentration of one partner at which half of the binding sites on the other are occupied at equilibrium, for simple one-to-one binding.

T2 sequence (Q16552 24-155 limits assumed, form in doubt): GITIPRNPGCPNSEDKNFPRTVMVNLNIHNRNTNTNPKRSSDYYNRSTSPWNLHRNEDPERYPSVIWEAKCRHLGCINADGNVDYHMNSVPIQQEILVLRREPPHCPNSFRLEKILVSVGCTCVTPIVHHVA
T3 sequence (F6T3G5 entry or part of it): as the sequence (Q16552 24-155 limits assumed, form in doubt) above, with T3A, N17T, I77V, P104R counted along it

B1: Chimeric antibody (mouse 7D6/5H8 VH and VL on human IgG1 and k constant regions) (antibody, V domains shown)
VH: QIQLVQSGPELKKPGETVKISCKASEYIFTNYGMNWVKEAPGKAFKWMGWIDTNTGEPTYAEDFKGRFAFSLDSSATSAFLQISNLKDDDTGTYFCANYGWGYFDYWGQGTTLTVSS
VL: DVVMTQTPLSLPVSLRDQASISCISSQSLVHSNGYTYLHWYLQKPGQSPKLLIYKVSNRFSGVPDRFSGSGSGTDFTLKISRVEAADLGVYFCSQSTHVPYTFGGGTKLEIK
notes: Human IgG1 heavy chain constant region and human kappa light chain constant region; Expressed in CHO-K1 cells
For the molecule B1, the values for the EC50 in [1] and in test [2] were 0.0392 µg/mL and 0.0386 µg/mL, respectively.

B2: mouse anti-human IL-17A monoclonal antibody of hybridoma 7D6/5H8 (antibody, V domains shown)
VH: QIQLVQSGPELKKPGETVKISCKASEYIFTNYGMNWVKEAPGKAFKWMGWIDTNTGEPTYAEDFKGRFAFSLDSSATSAFLQISNLKDDDTGTYFCANYGWGYFDYWGQGTTLTVSS
VL: DVVMTQTPLSLPVSLRDQASISCISSQSLVHSNGYTYLHWYLQKPGQSPKLLIYKVSNRFSGVPDRFSGSGSGTDFTLKISRVEAADLGVYFCSQSTHVPYTFGGGTKLEIK
notes: Mouse antibody from hybridoma supernatant; also called original murine antibody; IL17-HC1 / IL17-LC1
Consider B2, for which the EC50 in test [3] was determined as 0.194 µg/mL.

B3: humanized anti-IL-17A antibody HB0017 (antibody, human IgG1, V domains shown)
VH: QVQLVQSGSELKKPGASVKVSCKASEYIFTNYGMNWVKQAPGQGFEWMGWIDTNTGEPTYAQGFTGRFVFSLDTSVSTAYLQISSLKAEDTATYYCANYGWGYFDYWGQGTTVTVSS
VL: DVVMTQTPPSLPVNPGEPASISCRSSQSLVHSNGYTYLHWYLQKPGQSPQLLIYKVSNHLSGVPDRFSGSGSGTDFTLKISWVEAEDVGVYFCSQSTHVPYTFGGGTKLEIK
notes: also called HB0017 antibody; HBH17 antibody
B3: the EC50 in test [4] stood at 0.088 µg/mL; in [6], 0.24 µg/mL; in [10], 0.0154 µg/mL; in test [11] it was 0.075 µg/mL; in test [14], 0.0154 µg/mL; in test [16], 0.0154 µg/mL. Also, the “biological activity (IL-6 release by HT1080 cells) against the positive control antibody” value in [5] is about 6 fold. In addition, the binding result in [7], in test [9] and in [15] was “no binding” in each case. For the same molecule, the “improvement of EC50 against the chimeric antibody” value in test [8] is about 150%. Moreover, the “improvement of EC50 against the original murine antibody” value in test [8] was about 11.6 times. Also, the “IC50 of IL-6 release by HT1080 cells stimulated with IL-17A and TNFα” value in test [12] is 0.09 µg/mL. In addition, in test [13], the Kd was 0.0198 nM.

These data come from patent publication US20200071394A1 (HUABO BIOPHARM SHANGHAI, published 2020).
